Source: PMC4067148 (Biochemistry, 2014)
Numbering of substitutions follows the chain as printed. Names and notes keep the numbering of the source.

B1: AcrB_(L886G/E893G/W895G) (natural protein, Escherichia coli)
chain: MPNFFIDRPIFAWVIAIIIMLAGGLAILKLPVAQYPTIAPPAVTISASYPGADAKTVQDTVTQVIEQNMNGIDNLMYMSSNSDSTGTVQITLTFESGTDADIAQVQVQNKLQLAMPLLPQEVQQQGVSVEKSSSSFLMVVGVINTDGTMTQEDISDYVAANMKDAISRTSGVGDVQLFGSQYAMRIWMNPNELNKFQLTPVDVITAIKAQNAQVAAGQLGGTPPVKGQQLNASIIAQTRLTSTEEFGKILLKVNQDGSRVLLRDVAKIELGGENYDIIAEFNGQPASGLGIKLATGANALDTAAAIRAELAKMEPFFPSGLKIVYPYDTTPFVKISIHEVVKTLVEAIILVFLVMYLFLQNFRATLIPTIAVPVVLLGTFAVLAAFGFSINTLTMFGMVLAIGLLVDDAIVVVENVERVMAEEGLPPKEATRKSMGQIQGALVGIAMVLSAVFVPMAFFGGSTGAIYRQFSITIVSAMALSVLVALILTPALCATMLKPIAKGDHGEGKKGFFGWFNRMFEKSTHHYTDSVGGILRSTGRYLVLYLIIVVGMAYLFVRLPSSFLPDEDQGVFMTMVQLPAGATQERTQKVLNEVTHYYLTKEKNNVESVFAVNGFGFAGRGQNTGIAFVSLKDWADRPGEENKVEAITMRATRAFSQIKDAMVFAFNLPAIVELGTATGFDFELIDQAGLGHEKLTQARNQLLAEAAKHPDMLTSVRPNGLEDTPQFKIDIDQEKAQALGVSINDINTTLGAAWGGSYVNDFIDRGRVKKVYVMSEAKYRMLPDDIGDWYVRAADGQMVPFSAFSSSRWEYGSPRLERYNGLPSMEILGQAAPGKSTGEAMELMEQLASKLPTGVGYDWTGMSYQERLSGNQAPSLYAISLIVVFGCLAALYGSGSIPFSVMLVVPLGVIGALLAATFRGLTNDVYFQVGLLTTIGLSAKNAILIVEFAKDLMDKEGKGLIEATLDAVRMRLRPILMTSLAFILGVMPLVISTGAGSGAQNAVGTGVMGGMVTATVLAIFFVPVFFVVVRRRFSRKNEDIEHSHTVDHH
B2: AcrB_(E893G) (natural protein, Escherichia coli)
chain: B1 chain with G886L, G895W

Assays:
native gel or EMSA [1] = molecular target: the molecule itself; test: native gel or EMSA
native gel or EMSA [2] = molecular target: the molecule itself; test: native gel or EMSA; remark: listed apart in the source

Protein	stoichiometry N (native gel or EMSA [1])	KX (trimer association constant, mole fraction) (native gel or EMSA [2])
B1	3	1e+07
B2	3	3.2e+09
